Data as given in patent US12679878B2, “CRF2 receptor agonists and their use in therapy” (SANOFI, priority 2020, dated 2026).
Starred links: 1 amine or outer side, 2 acyl side, 3 side chain; linkers in the order of their positions; H or OH if unused. Non-standard residues stand in square brackets, D forms with d. Groups on a side chain read outwards from the residue. No end group written: not given here. *: point of attachment. C20 diacid = O=C(O)CCCCCCCCCCCCCCCCCCC(=O)*; C18 diacid = O=C(O)CCCCCCCCCCCCCCCCC(=O)*; γGlu = O=C(O)[C@H](CCC(=O)[*:2])N[*:1]; AEEA = NCCOCCOCC(=O)O; Aib = CC(C)(N)C(=O)O

B1: peptide of SEQ ID NO: 173 (peptide)
peptide: IVLSLD[dV]PIKLK([AEEA-AEEA-γGlu-C20 diacid])QILLKQERQK[Aib]QREQAEKNKQILAQV-NH2
modifications: N-terminus assumed
SMILES: CC[C@H](C)[C@H](N)C(=O)N[C@H](C(=O)N[C@@H](CC(C)C)C(=O)N[C@@H](CO)C(=O)N[C@@H](CC(C)C)C(=O)N[C@@H](CC(=O)O)C(=O)N[C@@H](C(=O)N1CCC[C@H]1C(=O)N[C@H](C(=O)N[C@@H](CCCCN)C(=O)N[C@@H](CC(C)C)C(=O)N[C@@H](CCCCNC(=O)COCCOCCNC(=O)COCCOCCNC(=O)CC[C@H](NC(=O)CCCCCCCCCCCCCCCCCCC(=O)O)C(=O)O)C(=O)N[C@@H](CCC(N)=O)C(=O)N[C@H](C(=O)N[C@@H](CC(C)C)C(=O)N[C@@H](CC(C)C)C(=O)N[C@@H](CCCCN)C(=O)N[C@@H](CCC(N)=O)C(=O)N[C@@H](CCC(=O)O)C(=O)N[C@@H](CCCNC(=N)N)C(=O)N[C@@H](CCC(N)=O)C(=O)N[C@@H](CCCCN)C(=O)NC(C)(C)C(=O)N[C@@H](CCC(N)=O)C(=O)N[C@@H](CCCNC(=N)N)C(=O)N[C@@H](CCC(=O)O)C(=O)N[C@@H](CCC(N)=O)C(=O)N[C@@H](C)C(=O)N[C@@H](CCC(=O)O)C(=O)N[C@@H](CCCCN)C(=O)N[C@@H](CC(N)=O)C(=O)N[C@@H](CCCCN)C(=O)N[C@@H](CCC(N)=O)C(=O)N[C@H](C(=O)N[C@@H](CC(C)C)C(=O)N[C@@H](C)C(=O)N[C@@H](CCC(N)=O)C(=O)N[C@H](C(N)=O)C(C)C)[C@@H](C)CC)[C@@H](C)CC)[C@@H](C)CC)C(C)C)C(C)C
B2: peptide of SEQ ID NO: 182 (peptide)
peptide: IVLSLD[dV]PIKLK(C18 diacid)QILLKQERQK[Aib]QREQAEKNKQILAQV-NH2
modifications: N-terminus assumed
SMILES: CC[C@H](C)[C@H](N)C(=O)N[C@H](C(=O)N[C@@H](CC(C)C)C(=O)N[C@@H](CO)C(=O)N[C@@H](CC(C)C)C(=O)N[C@@H](CC(=O)O)C(=O)N[C@@H](C(=O)N1CCC[C@H]1C(=O)N[C@H](C(=O)N[C@@H](CCCCN)C(=O)N[C@@H](CC(C)C)C(=O)N[C@@H](CCCCNC(=O)CCCCCCCCCCCCCCCCC(=O)O)C(=O)N[C@@H](CCC(N)=O)C(=O)N[C@H](C(=O)N[C@@H](CC(C)C)C(=O)N[C@@H](CC(C)C)C(=O)N[C@@H](CCCCN)C(=O)N[C@@H](CCC(N)=O)C(=O)N[C@@H](CCC(=O)O)C(=O)N[C@@H](CCCNC(=N)N)C(=O)N[C@@H](CCC(N)=O)C(=O)N[C@@H](CCCCN)C(=O)NC(C)(C)C(=O)N[C@@H](CCC(N)=O)C(=O)N[C@@H](CCCNC(=N)N)C(=O)N[C@@H](CCC(=O)O)C(=O)N[C@@H](CCC(N)=O)C(=O)N[C@@H](C)C(=O)N[C@@H](CCC(=O)O)C(=O)N[C@@H](CCCCN)C(=O)N[C@@H](CC(N)=O)C(=O)N[C@@H](CCCCN)C(=O)N[C@@H](CCC(N)=O)C(=O)N[C@H](C(=O)N[C@@H](CC(C)C)C(=O)N[C@@H](C)C(=O)N[C@@H](CCC(N)=O)C(=O)N[C@H](C(N)=O)C(C)C)[C@@H](C)CC)[C@@H](C)CC)[C@@H](C)CC)C(C)C)C(C)C
B3: peptide of SEQ ID NO: 174 (peptide)
peptide: IVLSLD[dV]PIKLK([AEEA-AEEA-γGlu-γGlu-C18 diacid])QILLKQARQK[Aib]QRAQAEKNKRILERV-NH2
modifications: N-terminus assumed
SMILES: CC[C@H](C)[C@H](N)C(=O)N[C@H](C(=O)N[C@@H](CC(C)C)C(=O)N[C@@H](CO)C(=O)N[C@@H](CC(C)C)C(=O)N[C@@H](CC(=O)O)C(=O)N[C@@H](C(=O)N1CCC[C@H]1C(=O)N[C@H](C(=O)N[C@@H](CCCCN)C(=O)N[C@@H](CC(C)C)C(=O)N[C@@H](CCCCNC(=O)COCCOCCNC(=O)COCCOCCNC(=O)CC[C@H](NC(=O)CC[C@H](NC(=O)CCCCCCCCCCCCCCCCC(=O)O)C(=O)O)C(=O)O)C(=O)N[C@@H](CCC(N)=O)C(=O)N[C@H](C(=O)N[C@@H](CC(C)C)C(=O)N[C@@H](CC(C)C)C(=O)N[C@@H](CCCCN)C(=O)N[C@@H](CCC(N)=O)C(=O)N[C@@H](C)C(=O)N[C@@H](CCCNC(=N)N)C(=O)N[C@@H](CCC(N)=O)C(=O)N[C@@H](CCCCN)C(=O)NC(C)(C)C(=O)N[C@@H](CCC(N)=O)C(=O)N[C@@H](CCCNC(=N)N)C(=O)N[C@@H](C)C(=O)N[C@@H](CCC(N)=O)C(=O)N[C@@H](C)C(=O)N[C@@H](CCC(=O)O)C(=O)N[C@@H](CCCCN)C(=O)N[C@@H](CC(N)=O)C(=O)N[C@@H](CCCCN)C(=O)N[C@@H](CCCNC(=N)N)C(=O)N[C@H](C(=O)N[C@@H](CC(C)C)C(=O)N[C@@H](CCC(=O)O)C(=O)N[C@@H](CCCNC(=N)N)C(=O)N[C@H](C(N)=O)C(C)C)[C@@H](C)CC)[C@@H](C)CC)[C@@H](C)CC)C(C)C)C(C)C
B4: peptide of SEQ ID NO: 163 (peptide)
peptide: Ac-IVLSLD[dV]PIHLK([AEEA-AEEA-γGlu-C18 diacid])QILLEQERQK[Aib]QREQAEKNKQILEQV-NH2
B5: peptide of SEQ ID NO: 162 (peptide)
peptide: Ac-IVLSLD[dV]PIELK([AEEA-AEEA-γGlu-C18 diacid])QILLEQERQK[Aib]QREQAEKNKQILEQV-NH2
SMILES: CC[C@H](C)[C@H](NC(C)=O)C(=O)N[C@H](C(=O)N[C@@H](CC(C)C)C(=O)N[C@@H](CO)C(=O)N[C@@H](CC(C)C)C(=O)N[C@@H](CC(=O)O)C(=O)N[C@@H](C(=O)N1CCC[C@H]1C(=O)N[C@H](C(=O)N[C@@H](CCC(=O)O)C(=O)N[C@@H](CC(C)C)C(=O)N[C@@H](CCCCNC(=O)COCCOCCNC(=O)COCCOCCNC(=O)CC[C@H](NC(=O)CCCCCCCCCCCCCCCCC(=O)O)C(=O)O)C(=O)N[C@@H](CCC(N)=O)C(=O)N[C@H](C(=O)N[C@@H](CC(C)C)C(=O)N[C@@H](CC(C)C)C(=O)N[C@@H](CCC(=O)O)C(=O)N[C@@H](CCC(N)=O)C(=O)N[C@@H](CCC(=O)O)C(=O)N[C@@H](CCCNC(=N)N)C(=O)N[C@@H](CCC(N)=O)C(=O)N[C@@H](CCCCN)C(=O)NC(C)(C)C(=O)N[C@@H](CCC(N)=O)C(=O)N[C@@H](CCCNC(=N)N)C(=O)N[C@@H](CCC(=O)O)C(=O)N[C@@H](CCC(N)=O)C(=O)N[C@@H](C)C(=O)N[C@@H](CCC(=O)O)C(=O)N[C@@H](CCCCN)C(=O)N[C@@H](CC(N)=O)C(=O)N[C@@H](CCCCN)C(=O)N[C@@H](CCC(N)=O)C(=O)N[C@H](C(=O)N[C@@H](CC(C)C)C(=O)N[C@@H](CCC(=O)O)C(=O)N[C@@H](CCC(N)=O)C(=O)N[C@H](C(N)=O)C(C)C)[C@@H](C)CC)[C@@H](C)CC)[C@@H](C)CC)C(C)C)C(C)C
B6: peptide of SEQ ID NO: 159 (peptide)
peptide: Ac-IVLSLD[dV]PIKLK([AEEA-AEEA-γGlu-C18 diacid])QILLEQERQE[Aib]QREQAEKNKQILEQV-NH2
SMILES: CC[C@H](C)[C@H](NC(C)=O)C(=O)N[C@H](C(=O)N[C@@H](CC(C)C)C(=O)N[C@@H](CO)C(=O)N[C@@H](CC(C)C)C(=O)N[C@@H](CC(=O)O)C(=O)N[C@@H](C(=O)N1CCC[C@H]1C(=O)N[C@H](C(=O)N[C@@H](CCCCN)C(=O)N[C@@H](CC(C)C)C(=O)N[C@@H](CCCCNC(=O)COCCOCCNC(=O)COCCOCCNC(=O)CC[C@H](NC(=O)CCCCCCCCCCCCCCCCC(=O)O)C(=O)O)C(=O)N[C@@H](CCC(N)=O)C(=O)N[C@H](C(=O)N[C@@H](CC(C)C)C(=O)N[C@@H](CC(C)C)C(=O)N[C@@H](CCC(=O)O)C(=O)N[C@@H](CCC(N)=O)C(=O)N[C@@H](CCC(=O)O)C(=O)N[C@@H](CCCNC(=N)N)C(=O)N[C@@H](CCC(N)=O)C(=O)N[C@@H](CCC(=O)O)C(=O)NC(C)(C)C(=O)N[C@@H](CCC(N)=O)C(=O)N[C@@H](CCCNC(=N)N)C(=O)N[C@@H](CCC(=O)O)C(=O)N[C@@H](CCC(N)=O)C(=O)N[C@@H](C)C(=O)N[C@@H](CCC(=O)O)C(=O)N[C@@H](CCCCN)C(=O)N[C@@H](CC(N)=O)C(=O)N[C@@H](CCCCN)C(=O)N[C@@H](CCC(N)=O)C(=O)N[C@H](C(=O)N[C@@H](CC(C)C)C(=O)N[C@@H](CCC(=O)O)C(=O)N[C@@H](CCC(N)=O)C(=O)N[C@H](C(N)=O)C(C)C)[C@@H](C)CC)[C@@H](C)CC)[C@@H](C)CC)C(C)C)C(C)C
B7: peptide of SEQ ID NO: 158 (peptide)
peptide: Ac-IVLSLD[dV]PIKLK([AEEA-AEEA-γGlu-C18 diacid])QILLEQERQK[Aib]QREQAEKNKQILEQV-NH2
SMILES: CC[C@H](C)[C@H](NC(C)=O)C(=O)N[C@H](C(=O)N[C@@H](CC(C)C)C(=O)N[C@@H](CO)C(=O)N[C@@H](CC(C)C)C(=O)N[C@@H](CC(=O)O)C(=O)N[C@@H](C(=O)N1CCC[C@H]1C(=O)N[C@H](C(=O)N[C@@H](CCCCN)C(=O)N[C@@H](CC(C)C)C(=O)N[C@@H](CCCCNC(=O)COCCOCCNC(=O)COCCOCCNC(=O)CC[C@H](NC(=O)CCCCCCCCCCCCCCCCC(=O)O)C(=O)O)C(=O)N[C@@H](CCC(N)=O)C(=O)N[C@H](C(=O)N[C@@H](CC(C)C)C(=O)N[C@@H](CC(C)C)C(=O)N[C@@H](CCC(=O)O)C(=O)N[C@@H](CCC(N)=O)C(=O)N[C@@H](CCC(=O)O)C(=O)N[C@@H](CCCNC(=N)N)C(=O)N[C@@H](CCC(N)=O)C(=O)N[C@@H](CCCCN)C(=O)NC(C)(C)C(=O)N[C@@H](CCC(N)=O)C(=O)N[C@@H](CCCNC(=N)N)C(=O)N[C@@H](CCC(=O)O)C(=O)N[C@@H](CCC(N)=O)C(=O)N[C@@H](C)C(=O)N[C@@H](CCC(=O)O)C(=O)N[C@@H](CCCCN)C(=O)N[C@@H](CC(N)=O)C(=O)N[C@@H](CCCCN)C(=O)N[C@@H](CCC(N)=O)C(=O)N[C@H](C(=O)N[C@@H](CC(C)C)C(=O)N[C@@H](CCC(=O)O)C(=O)N[C@@H](CCC(N)=O)C(=O)N[C@H](C(N)=O)C(C)C)[C@@H](C)CC)[C@@H](C)CC)[C@@H](C)CC)C(C)C)C(C)C

biological target: rat CRF2R α receptor (rat, UniProt P47866 20-411); assay: cell-based or functional assay
Sequence (P47866 20-411): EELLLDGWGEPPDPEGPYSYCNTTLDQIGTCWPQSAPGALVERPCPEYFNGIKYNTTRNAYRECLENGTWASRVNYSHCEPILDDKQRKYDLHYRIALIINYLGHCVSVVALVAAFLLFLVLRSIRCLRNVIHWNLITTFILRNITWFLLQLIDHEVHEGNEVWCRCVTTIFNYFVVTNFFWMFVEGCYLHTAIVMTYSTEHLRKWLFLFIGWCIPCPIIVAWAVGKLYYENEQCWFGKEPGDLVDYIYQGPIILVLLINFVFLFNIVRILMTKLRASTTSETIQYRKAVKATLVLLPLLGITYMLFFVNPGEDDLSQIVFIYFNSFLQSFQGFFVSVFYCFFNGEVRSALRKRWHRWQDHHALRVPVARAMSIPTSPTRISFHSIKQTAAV

EC50 [nM], 0% HSA (cAMP, A7R5 cells) [nM] | Binder
0.83 | B1
0.59 | B2
0.42 | B3
1.5 | B4
48.6 | B5
15.6 | B6
5.29 | B7
